In patent publication US5130298A, “Stabilized compositions containing epidermal growth factor” (Ethicon, Inc., priority 1989, dated 1992):

Assays:
[1] = EGF stability with zinc ion at pH 5.5 to 6.5, aged 28 days at 46° C., reverse phase HPLC of Peaks C, D, X, Y; format: physicochemical
Procedure: Recombinantly produced human EGF (Chiron Corporation, Emeryville, Calif.) was used in the following experiments. EGF stability with zinc ion was tested at pH 5.5 to 6.5. Lyophilized EGF was reconstituted in 50 mM sodium acetate at PH 5.5. A solution of zinc chloride was then added to this EGF solution. Alternatively, a solution of zinc acetate or crystals of a zinc salt could have been added.
The samples were permitted to age over a 28 day period and then HPLC analysis was used to study the structural changes involving the formation of new species (e.g., Peaks C, X and Y) of EGF under various storage conditions and in the presence of new formulations. Reverse phase HPLC can be used for quantitative and qualitative analysis of EGF.
(§1) The zinc-EGF complex must be dissociated before HPLC analysis because the complex cannot be run on the HPLC column as is. Therefore, prior to HPLC, the pH of the samples to be analyzed was adjusted to 3.0. Alternatively, EDTA (a chelating agent) may be used to reverse crystallization. Reverse phase HPLC was conducted using a Vydac C-4 column (4.6 mm×25 cm, 5μm). The flow rate was 0.8 ml/min at 26° C. using a linear gradient of 26% to 32% acetonitrile (0.1% TFA) over 26 minutes.

[2] = Stability of precipitated EGF at pH 4.6, 7 days at 46° C., with or without zinc ion, reverse phase HPLC; format: physicochemical; conditions: pH 4.6, precipitated, sodium acetate buffer
Procedure: as §1
This experiment was designed to answer the stability of the zinc-EGF complex results from the exclusion of water by the large and insoluble complex or alternatively from the direct interaction of zinc ion with specific amino acids in the protein. A zinc-EGF solution and control were prepared as in Example 1 and the samples were adjusted to a PH of 4.6. At this pH EGF naturally precipitates out of solution since it is at its isoelectric point. Two sets of the precipitated EGF at pH 4.6 in sodium acetate buffer were incubated for 7 days at 46° C.

Substance	% Peak C ([1]; pH 5.5, 28 days at 46° C.)	% Peak D (native EGF) ([1]; pH 5.5, 28 days at 46° C.)	% Peak X ([1]; pH 5.5, 28 days at 46° C.)	% Peak C ([1]; pH 6.0, 28 days at 46° C.)	% Peak D (native EGF) ([1]; pH 6.0, 28 days at 46° C.)	% Peak X ([1]; pH 6.0, 28 days at 46° C.)	% Peak C ([1]; pH 6.5, 28 days at 46° C.)	% Peak X ([1]; pH 6.5, 28 days at 46° C.)	% Peak C [2]	% Peak X [2]	% Peak Y [2]	% Peak Y ([1]; pH 5.5, 28 days at 46° C.)	% Peak Y ([1]; pH 6.0, 28 days at 46° C.)	% Peak D (native EGF) ([1]; pH 6.5, 28 days at 46° C.)	% Peak Y ([1]; pH 6.5, 28 days at 46° C.)	% Peak D (native EGF) [2]
With Zn++: complex ion wherein zinc is coordinately bound to recombinant human EGF; precipitates at pH 4.0-7.0	3%	82%	0%	3%	75%	4%	1%	0%	2%	7%	0%	–	–	–	–	–
Without Zn++: Recombinantly produced human epidermal growth factor (Chiron Corporation), 53 amino acid polypeptide, without zinc; control	3%	30%	–	6%	51%	–	6%	–	0%	26%	27%	25%	21%	52%	21%	47%
